Measured values reported in patent US20200325237A1 (AVIDITY BIOSCIENCES, published 2020).

T1: TfR2 (transferrin receptor 2) (UniProt Q9UP52 105-801, limits assumed)
T1 sequence (looked up): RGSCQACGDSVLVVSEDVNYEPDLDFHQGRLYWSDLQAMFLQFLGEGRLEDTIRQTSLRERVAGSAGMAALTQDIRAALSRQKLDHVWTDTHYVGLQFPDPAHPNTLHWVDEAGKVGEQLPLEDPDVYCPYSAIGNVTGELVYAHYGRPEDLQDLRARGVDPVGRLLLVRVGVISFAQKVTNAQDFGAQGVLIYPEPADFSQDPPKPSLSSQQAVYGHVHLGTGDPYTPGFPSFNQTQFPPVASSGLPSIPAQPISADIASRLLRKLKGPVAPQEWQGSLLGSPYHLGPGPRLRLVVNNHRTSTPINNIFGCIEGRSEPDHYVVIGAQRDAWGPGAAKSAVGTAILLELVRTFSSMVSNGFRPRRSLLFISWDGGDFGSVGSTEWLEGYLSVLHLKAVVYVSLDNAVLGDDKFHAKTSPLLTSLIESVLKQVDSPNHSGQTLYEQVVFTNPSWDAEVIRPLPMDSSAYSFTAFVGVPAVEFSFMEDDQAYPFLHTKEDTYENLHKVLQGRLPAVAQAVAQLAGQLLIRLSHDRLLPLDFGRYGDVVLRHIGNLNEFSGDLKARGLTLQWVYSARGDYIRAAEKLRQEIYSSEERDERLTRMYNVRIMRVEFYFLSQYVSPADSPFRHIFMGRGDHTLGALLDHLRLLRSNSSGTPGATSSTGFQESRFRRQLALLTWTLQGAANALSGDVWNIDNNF


Key:
[1] = molecular target: T2, recombinant human transferrin receptor protein (Sino Biological 11020-H07H) (human, UniProt P02786 89-760); assay: ELISA on plate-coated recombinant human TfR1 (CD71); fit: specific binding with Hill slope
T2 construct: Bought protein coated on ELISA plates; also called recombinant human TfR1; human TfR1
T2 sequence (P02786 89-760 limits assumed): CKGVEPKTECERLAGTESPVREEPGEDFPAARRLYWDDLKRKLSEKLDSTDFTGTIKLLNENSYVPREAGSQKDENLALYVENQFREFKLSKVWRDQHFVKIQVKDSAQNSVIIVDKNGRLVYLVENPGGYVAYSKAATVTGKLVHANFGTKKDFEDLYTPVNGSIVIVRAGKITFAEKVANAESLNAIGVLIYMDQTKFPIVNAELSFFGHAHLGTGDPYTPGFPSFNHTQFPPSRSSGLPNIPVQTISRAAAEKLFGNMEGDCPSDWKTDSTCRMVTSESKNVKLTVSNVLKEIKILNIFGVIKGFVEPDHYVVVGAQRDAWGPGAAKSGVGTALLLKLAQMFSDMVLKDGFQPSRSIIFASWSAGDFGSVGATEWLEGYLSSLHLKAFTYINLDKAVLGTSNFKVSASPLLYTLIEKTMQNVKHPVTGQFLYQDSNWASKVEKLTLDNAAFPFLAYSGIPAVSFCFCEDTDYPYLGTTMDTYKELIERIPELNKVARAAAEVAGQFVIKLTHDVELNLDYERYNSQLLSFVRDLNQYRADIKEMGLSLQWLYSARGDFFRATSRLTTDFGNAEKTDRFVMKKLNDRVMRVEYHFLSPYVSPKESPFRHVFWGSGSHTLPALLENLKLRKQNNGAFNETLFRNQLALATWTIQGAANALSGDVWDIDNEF
Description: (§1) Half-well high-binding 96-well plates (Costar #3690) were coated with recombinant human transferrin receptor protein (Sino Biological 11020-H07H) or recombinant cyno transferrin receptor protein (Sino Biological 90253-C07H) at 1 ng/μL in PBS (Gibco 14190) and incubated overnight at 4° C. Plates were washed four times with 100 μL of Tris buffered saline+Tween (20×TBST, Cell Signaling 9997S). 100 μL of Superblock (ThermoFisher PI-37535) was added to each well and incubated for 1 hour at room temperature. The wash step was repeated before the addition of the samples. Samples were added at concentrations up to 10 nM, 50 μL/well. Plates were incubated for another hour at room temp and wash step repeated. Secondary antibody (Peroxidase AffiniPure Goat Anti-Human IgG, Fcγ Fragment Specific, Jackson Immunoresearch, 109-035-098) was diluted 1:5000 in Superblock and 50 μL/well added. Plates were incubated for 1 hour at room temperature and washed one more time. Binding was measured by the addition of 50 μL of 1-Step™ Ultra TMB-ELISA (ThermoFisher, 34028), incubated for 5 minutes, and the reaction was stopped with the addition of 25 μL of Stop Solution 2N sulfuric Acid (R&D Systems DY994). Absorbance was measured at 450 nm, with reference wavelength 570 nm subtracted. Binding constants were determined using GraphPad Prism Specific Binding with Hill Slope.

[2] = molecular target: T3, recombinant cyno transferrin receptor protein (Sino Biological 90253-C07H) (cyno, UniProt H9EXL1 89-760 (rhesus entry)); assay: ELISA on plate-coated recombinant cyno TfR1 (CD71); fit: specific binding with Hill slope
T3 construct: Bought protein coated on ELISA plates; also called recombinant cyno TfR1; cynoTfR1
T3 sequence (chain, as listed by the source C07H C07H): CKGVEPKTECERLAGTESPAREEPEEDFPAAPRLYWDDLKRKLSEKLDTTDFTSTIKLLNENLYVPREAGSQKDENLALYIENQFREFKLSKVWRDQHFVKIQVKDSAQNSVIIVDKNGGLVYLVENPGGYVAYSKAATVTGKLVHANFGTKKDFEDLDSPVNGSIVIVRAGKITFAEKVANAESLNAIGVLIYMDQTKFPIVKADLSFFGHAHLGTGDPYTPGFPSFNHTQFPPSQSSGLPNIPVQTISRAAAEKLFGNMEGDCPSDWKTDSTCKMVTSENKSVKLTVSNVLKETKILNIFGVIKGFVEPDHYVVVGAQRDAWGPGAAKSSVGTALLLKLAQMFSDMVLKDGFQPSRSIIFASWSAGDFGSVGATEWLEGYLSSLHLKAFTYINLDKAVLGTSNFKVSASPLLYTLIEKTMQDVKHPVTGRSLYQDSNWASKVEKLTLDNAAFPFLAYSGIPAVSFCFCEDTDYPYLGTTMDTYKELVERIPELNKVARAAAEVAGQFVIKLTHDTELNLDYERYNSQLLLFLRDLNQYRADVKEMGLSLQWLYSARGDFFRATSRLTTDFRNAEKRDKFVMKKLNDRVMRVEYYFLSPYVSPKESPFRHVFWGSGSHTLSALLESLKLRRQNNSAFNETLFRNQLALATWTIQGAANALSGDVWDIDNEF
Description: as §1

[3] = molecular target: T1, TfR2 (transferrin receptor 2); assay: A450 plate assay on TfR2 (method not described in the text)
[4] = molecular target: T4, hTfR (human transferrin receptor, source and construct not stated) (human, UniProt P02786 89-760, limits assumed); assay: ELISA; ratio of the Kd on HFE-captured hTfR to the Kd on directly coated hTfR
T4 sequence (P02786 89-760 limits assumed): as the sequence (P02786 89-760 limits assumed) above

[5] = molecular target: T4, hTfR (human transferrin receptor, …); assay: ELISA; ratio of the Kd on transferrin-captured hTfR to the Kd on directly coated hTfR
Description: (§2) Antibodies were biotinylated using 50 fold molar excess of EZ-Link No weigh NHS-Biotin (Thermo Scientific A39256) following manufacturer's instructions. Half-well high-bind plates (Costar #3690) were coated with 500 ng/mL purified human holo-transferrin (R&D Systems 2914-HT) in PBS at 4° C. overnight. For comparison, plates were coated directly with hTfR. Plates were washed four times with 100 μL of Tris buffered saline+Tween (20×TBST, Cell Signaling 9997S). 100 μL of Superblock (ThermoFisher PI-37535) was added to each well and incubated for 1 hour at room temperature. The wash step was repeated before the addition of the hTfR (200 ng/mL in 25 μl) to the transferrin plates, or Superblock to the hTfR plates, and incubated for 30 minutes. Biotinylated antibodies were diluted to 20 nM for the high concentration and added to the plates with 3-fold serial dilution. 25 μl/well was added to the 25 μl already in the plate. Plates were incubated for 1 hour, and wash step was repeated. Streptavidin-HRP (R&D Systems DY998) was added following recommended dilution on the package insert, and a final wash step was done. Binding was measured by the addition of 50 μL of 1-Step™ Ultra TMB-ELISA (ThermoFisher, 34028), incubated for 5 minutes, and the reaction was stopped with the addition of 25 μL of Stop Solution 2N sulfuric Acid (R&D Systems DY994). Absorbance was measured at 450 nm, with reference wavelength 570 nm subtracted. Binding constants were determined using GraphPad Prism Specific Binding with Hill Slope. Change in antibody binding constants in the presence versus absense of transferrin is considered relative to the commercially available antibody which is known to have an overlapping epitope with transferrin (AF2474, R&D Systems).

[6] = molecular target: T4, hTfR (human transferrin receptor, …); assay: SPR (BioRad ProteOn XPR36), mAb captured on Protein A, hTfR as analyte, 25 C
Description: The binding kinetics of nine exemplary humanized anti-TfR antibodies and the parent chimeric antibody were characterized. Studies were run on a BioRad ProteOn XPR36 optical biosensor using a GLM sensor chip coated with Protein A for mAb capture. Running buffer included 10 mM EPES, 150 mM NaCl, pH 7.4 with 0.05 tween-20 with 0.2 mg/ml BSA. Data were collected at 25 degrees C. All mAbs were diluted into running buffer to 2 ug/ml based on the stock concentration provided. Each was then captured for 40 seconds over a Protein A surface.
hTfR (100 ug) was dissolved into […] of water to yield a 4.3 uM stock concentration. hTfR was dilted to 43 nM as the highest concentration and tested in a 3 fold dilution series. hTfR was injected at 200 ul/min for 2 minutes followed by a one-hour dissociation phase.

[7] = molecular target: T4, hTfR (human transferrin receptor, …); assay: ELISA, biotinylated antibody on hTfR captured by plate-coated human holo-transferrin (Tf+TfR); fit: specific binding with Hill slope
Description: as §2

[8] = molecular target: T4, hTfR (human transferrin receptor, …); assay: ELISA, biotinylated antibody on hTfR captured by plate-coated HFE (HFE+TfR); fit: specific binding with Hill slope

| Binder | Bmax [1] | Kd [1] | h [1] | Bmax [2] | Kd [2] | h [2] | binding result [3] | Kd(HFE+TfR)/Kd(TfR) [4] | Kd(Tf+TfR)/Kd(TfR) [5] | Kd [6] | koff [6] | kon [6] | Bmax [7] | Kd [7] | h [7] | Bmax [8] | Kd [8] | h [8] |
| --- | --- | --- | --- | --- | --- | --- | --- | --- | --- | --- | --- | --- | --- | --- | --- | --- | --- | --- |
| 13E4-Variant 2i (antibody, human IgG1, kappa, L234A L235A, Humanized hIgG1 with Fc mutations; also called hIgG1 TfR-Var2i) heavy: not shown light: DIQMTQSPSSLSASVGDRVTITCRTSENIYNNLAWYQQKPGKSPKLLIYAATNLADGVPSRFSGSGSGTDYTLTISSLQPEDFATYYCQHFWGTPLTFGGGTKVEIKRTVAAPSVFIFPPSDEQLKSGTASVVCLLNNFYPREAKVQWKVDNALQSGNSQESVTEQDSKDSTYSLSSTLTLSKADYEKHKVYACEVTHQGLSSPVTKSFNRGEC | 94.2 % max binding | 0.00817 nM | 1.35 | 93.1 % max binding | 0.012 nM | 1.56 | no binding (tested: 1000 nM) | 11.1 | 2.8 | 0.00043 nM | 3.9e-07 s⁻¹ | 913000 M⁻¹ s⁻¹ | 3.48 A450 | 0.0678 nM | 1.49 | 3 A450 | 0.273 nM | 1.63 |
| 13E4-Variant 9i (antibody, human IgG1, kappa, L234A L235A, Humanized hIgG1 with Fc mutations; also called hIgG1 TfR-Var9i) heavy: not shown light: DIQMTQSPSSLSASVGDRVTITCRTSENIYNNLAWYQQKPGKAPKLLIYAATNLAEGVPSRFSGSGSGTDYTLTISSLQPEDFATYYCQHFWGTPLTFGGGTKVEIKRTVAAPSVFIFPPSDEQLKSGTASVVCLLNNFYPREAKVQWKVDNALQSGNSQESVTEQDSKDSTYSLSSTLTLSKADYEKHKVYACEVTHQGLSSPVTKSFNRGEC | 95.7 % max binding | 0.00973 nM | 1.22 | 95 % max binding | 0.011 nM | 1.51 | no binding (tested: 1000 nM) | 13.6 | 2.2 | 0.00121 nM | 1.02e-06 s⁻¹ | 843000 M⁻¹ s⁻¹ | 3.53 A450 | 0.0559 nM | 1.45 | 2.79 A450 | 0.341 nM | 1.37 |

The remaining binders from weak to strong by Kd [1], led by results:

| Bmax [1] | Kd [1] | h [1] | Bmax [2] | Kd [2] | h [2] | binding result [3] | Kd(HFE+TfR)/Kd(TfR) [4] | Kd(Tf+TfR)/Kd(TfR) [5] | Kd [6] | koff [6] | kon [6] | Bmax [7] | Kd [7] | h [7] | Bmax [8] | Kd [8] | h [8] | Binder |
| --- | --- | --- | --- | --- | --- | --- | --- | --- | --- | --- | --- | --- | --- | --- | --- | --- | --- | --- |
| 92.9 % max binding | 0.00964 nM | 1.43 | 94.2 % max binding | 0.0127 nM | 1.58 | no binding (tested: 1000 nM) | 9.9 | 2.5 | 0.00049 nM | 4.3e-07 s⁻¹ | 880000 M⁻¹ s⁻¹ | 3.53 A450 | 0.0578 nM | 1.45 | 3.15 A450 | 0.227 nM | 1.64 | 13E4-Variant 2ii (antibody, human IgG1, kappa, L234A L235A, Humanized hIgG1 with Fc mutations; also called hIgG1 TfR-Var2ii) heavy: QVQLVQSGAEVKKPGASVKVSCKASGYTFTNYWMHWVRQAPGQGLEWIGEINPINGRSNYAEKFQGRVTLTVDTSSSTAYMELSRLRSDDTAVYYCARGTRAMHYWGQGTLVTVSSASTKGPSVFPLAPSSKSTSGGTAALGCLVKDYFPEPVTVSWNSGALTSGVHTFPAVLQSSGLYSLSSVVTVPSSSLGTQTYICNVNHKPSNTKVDKRVEPKSCDKTHTCPPCPAPEAAGGPSVFLFPPKPKDTLMISRTPEVTCVVVDVSHEDPEVKFNWYVDGVEVHNAKTKPREEQYNSTYRVVSVLTVLHQDWLNGKEYKCGVSNKALPAPIEKTISKAKGQPREPQVYTLPPSREEMTKNQVSLTCLVKGFYPSDIAVEWESNGQPENNYKTTPPVLDSDGSFFLYSKLTVDKSRWQQGNVFSCSVMHEALHNHYTQKSLSLSPG light: DIQMTQSPSSLSASVGDRVTITCRTSENIYNNLAWYQQKPGKSPKLLIYAATNLADGVPSRFSGSGSGTDYTLTISSLQPEDFATYYCQHFWGTPLTFGGGTKVEIKRTVAAPSVFIFPPSDEQLKSGTASVVCLLNNFYPREAKVQWKVDNALQSGNSQESVTEQDSKDSTYSLSSTLTLSKADYEKHKVYACEVTHQGLSSPVTKSFNRGEC |
| 95 % max binding | 0.00958 nM | 1.2 | 94.3 % max binding | 0.0092 nM | 1.35 | no binding (tested: 1000 nM) | 11.9 | 2.1 | 0.00095 nM | 8.2e-07 s⁻¹ | 862000 M⁻¹ s⁻¹ | 3.47 A450 | 0.0522 nM | 1.61 | 2.66 A450 | 0.289 nM | 1.26 | 13E4-Variant 2iii (antibody, human IgG1, kappa, L234A L235A, Humanized hIgG1 with Fc mutations; also called hIgG1 TfR-Var2iii) heavy: QVQLVQSGAEVKKPGASVKVSCKASGYTFTNYWMHWVRQAPGQGLEWIGEINPINGRSNYAEKFQGRVTLTVDTSSSTAYMELSRLRSDDTAVYYCARGTRAMHYWGQGTLVTVSSASTKGPSVFPLAPSSKSTSGGTAALGCLVKDYFPEPVTVSWNSGALTSGVHTFPAVLQSSGLYSLSSVVTVPSSSLGTQTYICNVNHKPSNTKVDKRVEPKSCDKTHTCPPCPAPEAAGGPSVFLFPPKPKDTLMISRTPEVTCVVVDVSHEDPEVKFNWYVDGVEVHNAKTKPREEQYNSTYRVVSVLTVLHQDWLNGKEYKCKVSNKARPAPIEKTISKAKGQPREPQVYTLPPSREEMTKNQVSLTCLVKGFYPSDIAVEWESNGQPENNYKTTPPVLDSDGSFFLYSKLTVDKSRWQQGNVFSCSVMHEALHNHYTQKSLSLSPG light: DIQMTQSPSSLSASVGDRVTITCRTSENIYNNLAWYQQKPGKSPKLLIYAATNLADGVPSRFSGSGSGTDYTLTISSLQPEDFATYYCQHFWGTPLTFGGGTKVEIKRTVAAPSVFIFPPSDEQLKSGTASVVCLLNNFYPREAKVQWKVDNALQSGNSQESVTEQDSKDSTYSLSSTLTLSKADYEKHKVYACEVTHQGLSSPVTKSFNRGEC |
